Here are results for 47 sequences from the NTF2 design screens of Basanta et al. (2020).

A short description of the series: protease stability score; higher = more stable; yeast display proteolysis, trypsin and chymotrypsin.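 Also: relative to predicted unfolded state with 0 unfolded-like and 1 meaning tenfold more protease.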
“SKEEKETEKAMEESLHIFETGDWKAFHDNVDPNVRLHIGDKDSHGRERATELYLTVVHHLGINHIQIDSFQINIQGDKVVINIDGTSHVGDKWSRIRVHIVERKIDGRWLISSFKMHIE”: the protease stability score stood at 1.07.
Then “SKEETWVKEAYELMTRTIRTGDERLMHELLDPHVRTVINGQESHGREVVLRFLEHIRYEEVTPTHIRIIGDWIDVDIRIHGHFDGRRYELRSTLFMRKVDGKWDLTEIRII”, with 0.709; and “SKHKEQTEHVMKTWEHAMRTGDEDRVSHLLDPNVRFEVGNKEFHGREEMSRHIVEMRFTELRLRDVETQGDKVHFEGEMRGIIDGKEETNKLIVIIYKVNGRWHIRSVHVE”, with 0.618.
Then “SKISEFVKMLLEIEVHAHETGDWRHYQEMMDPHVKFELNIGNFHTLDHGRDRLIDWIEHHIKRADHLHVHIREVHVIGDKVSVRGELKTNVNGVDLEYEILQIIIVVDGRFKSIQHSYL”, with 0.155; and “SKLEEDAHKMLDKILHNIRTGDEESEHRLADPEVKFHIGDKTFHGMSLVSKLLLHLRIRTERIENVNIRVINGVAEVEMRGVRDGEFNGVRVQVTVEEHFIIDKINGRWIIREIHVHII”, with 1.29; and “SKLEEDTRRAVEHFLKNIHTGDEHELTKMLDPNVRLDFDGREYHGREEVVHYLFRIMHEFGADHSEVKHWHVQGDFMQVDTRLHVGDKFFETELYMHKINGRWYVKHIIIR”, with 2.13.
Regarding “SKREDKWKHHVEVLIRLWQTGDEDTLKELFDPNVLLLVIYNGRNIHNHGRELAMHWLRYLLEHLGIDHYHIESSSVIGDKVEIKSRVYIGDKTYELDLEIRIIDGRLKSLNVNIE”, the protease stability score was 0.8.
Under “SLEEHAFRLALHLLENMWLTGDEELFERLLDPHARLEFENHKYHGRDIVSEFMRRIKNLTFHRIIFRNRDVQGEKVSFIMETDVEWNGKRHIEHTHITVHKINGVWLIHEVDIR” stands 1.42; under “SMEEMSELYIKWWMTGDWDKLTNNADPHTRVNVGNFESVGMEHLIELMLRHVKHFGINHSILRSHDTQGDKVHVDGELHVNGRTARIVLHLEIVNGRIKSESVESRSEVFEEHLHKVLR”, 0.635.
Take “SNEDEIAQHLVRLILNAHLTGDEKLLETLADPTMRFTLRIGDKQHERHGREEWIKWVRHTIERIDHIEIRIDDRRIQGDKIEIDGTLRLEIGDKVNQVRVDIIIHLVNGRLKEVIIEVV”: the protease stability score came to 2.06.
Then “SNEQKEFELLLRLMKEIIETGDEENFHRMVDPHARLQVGDKHHHGREEMSRWFEEFTKRFKNAKVHIDHVDSVDGQLHIDTTLIFDGVERRVEIIVRKVDGKWILEEVRII”, with 1.08.
As to “SQDERDVKKFVDLYERTVETGNEEDMERLMDPHVRMEVGDKHEHGRHIVIRVLHELGADHVDIHHVNVQGEKIHIHGRLHVDGRIHHVEIHAKKVNGKWIMKLVIIR”, the protease stability score turned out to be 1.11.
In turn, “SQDKETSDEAFRIWVESYETGNEHLEEHMVDPNARSRVGDKELIGMEHFIKIMEKIKNATLEIRHRSYTEIDGRLRWHTQLYIEYGDKRIEREIIIIVHKVNGRWSIEHFEVR” came in with a protease stability score of 0.973.
Under “SQEEEIVLHISQRLLRALSTGNEKEFEELLDPNARVSEIQGDKSYSHHGREEFLIFMREWFEKMGIKHFHIEHIDVQGNWVRVRGRITFNGREHDVNILILVIDGRVRSFTIEIK” stands 1.57; under “SQEEKEIRDWLHILANARLTGDEDWLLKQADPNTRLEFNGVDLVGMEHNIKFLLHLERQHGMRLHNIHIHHVEVQGDKVESDIREDGEVNGRRMIFTSIIIVRKVNGRWILRSFHLH”, 1.21.
“SQEEQDTEEFLRHLHEALRTGDEKTLRTLIDPHVRLFINGVHLHGREELVRWLKEFVDRLGIDVSTLHIDDMRIIGNFIELDTKIRWKIGDKTEEVETRFIIVKIDGRWYVRQVEMG”: the protease stability score turned out to be 2.6.
Under “SQEERELHRALKELFDRFITGDWDKLQKLLDPEVRLNINGQEIHGREEVWKRKIEEFEKFGIDHIKFHLEHERRQGDKIELDGRLEIRVGDKRLEHEVRIVFLKIDGKWILRSEEIN” stands 1.47; under “SQEERTHRELLRLLLESLTTGDEDTLRHLMDPHMIIRIGDKHFHGWDWIVHLFRKLGADHMEVEIRDEDIIDGRIRHHGSLHIHVDGRTEHIETILFVEKVNGRWVIRSVEFR”, 1.64.
Then “SQIEEDIRRQLKRFNDALTTGDEDEIMNLFDPDVRWIQGNYEHHGREFYLEMFREWRTHSIRIDIDRMEIQGDKVTLHTRFTVDGEFNGRRITEQYELVFIARKIDGRWVFREVRIK”, with 2.4.
As to “SQLEVASTEALELLRFSLETGDWEFLLRLADPNTRIEINGVTFHGREDMEEIMEEKFRRFKNVKVELDVKEVHFQGDKVRIRVVEFWKVDGQEIFIDSRIVMIKVNGRWVYKELRVH”, the protease stability score was 0.7.
As to “SRAEEEARHLLHLLIHSLNTGDEDTSRKMLDPHVRLIIDGREHHGREDLLWFLRFLGFDHVHHVELHDLHDVNGRIKVDVKFHMFVGDKLIKTTVIYFILKINGRWVFESIKVE”, the protease stability score amounted to 1.23.
“SREDELREEFLRRILEVLRTGDFDEWKKYLDPDTRNDINGVDWVGRETAAHELERMYRHIRIKDTKVHDVRVQGDKVHIDVRVLIEFDGRERILETHIVVEKVDGRWHLKHVRFN” had a protease stability score of 1.62.
In turn, “SREEEDAKLALDLLIEALKTGDEHEIKELLDPTTRMEVGDKELVGRENISKHVSDMVHRIDHIEVRLHDMTIINGVVHLDTRLILHFNGRTHTQETRVIVWKFNGRWIITHIHVK” came in with a protease stability score of 1.28.
Then “SREEEEATHAVNRWMQLFITGDEESLRELADPDDRINIDGKDFHGREEFEMFMRLFVERFKNLRVELEDTRITVQGDKITVRFKIHFNINGVQTKTEVIIFSTKVNGRWHFKSEEVRHR”, with 0.415.
Regarding “SREEEIAHDVFREWIESFRTGDEDHRTEMMDPNARVFVNGVEFVGRDEIVRFFRHLRFDNSRHEIKSVRVVDGVAHIDSHLELHGTVNGQRDRVSYKLNVHTSKIDGKWVITEVKVK”, the protease stability score came out at 2.03.
Consider “SREEEIMRRFLELLILAFRTGDEDTYLKMLDPRVRLEINGRDLHGRETVREHYKDERDELGVSQFHIWVRDLRVQGDKIETEGHLEFDGRWLDIHFHAHFVDGRLKSFRIEIR”, for which the protease stability score was found to be 1.32.
“SREEELAKKLLEIYSRSVETGDWKKLFELMDPNTRVEQGEWHFHGREEFHKLVHKFLERADVVHVEIDRIKVIGDFVHIDVVLHIHQGEFHHVVRTRLDYLKFNGRWVLQTIRIE” registered a protease stability score of 1.6.
Under “SREEKEIKEIWELLVRSWLTGDEETLTHLLDPNARSVINGREYHGRETIAHELTRHLYELRIKDIELHHVDIIGDKVKIDSRVEYHFNGRETELKVEIVALKINGRWRLKDNIIK” stands 1.47; under “SREHKEAEDALRQWLETLRTGDERTMHELFDPNVRLHINGKEIHGREKVLTQLEHELKRFKNVRYELESIDITEHHVRVFGTSHVNGVEEKLEIVILKWDGRWRVQELYVHRV”, 1.67; under “SRESEEAKDDWEKIINDLRTGDFRSLRELFDPNVRLETENHEFHGWETAEHMVKRFDHIHVRREHFDHIEIQGEKVILDGTMRMEFIINGVVYEKEQRVIIIFLKYNGRWLIKEVEFI”, 0.759.
Under “SRIEKLIEHLVHLWLEIWRTGDEHSFTRLLDPHVRLRIGDKHFIGREDVVKFLRDHEKEWREDDVEIRDIRTQGDFLEVEITITGRFNGRDITREFRITMIVVDGRVKEIRISYE” stands 2.05; under “SRKDEHTHHLLHLFWEIFMTGDEERWTQLLDPNMRTEIDGKDLHGREDAIRFMIERLRQLGFDHMRLHHLENQGEKAHIDGTLEVGDKLVRVHFSTKIVNGRIKELTIKFH”, 1.02; under “SSDKRDAHFAMDLYYEIHLTGDEDRWRHMADPNVRLHVGEKDFHGRELWFKFMHDFGLDKIEIELKDIEVQGEKVHLDGIIRFDGREHKVEVDLRKINGRWIIDEERYK”, 1.13.
Under “SSEEEDIEWATEVLVMSFITGDWKLSHKLMDPNVLSIVNGREFHGRELAVKHLHEMTEKIKGLRIETHDLKHINIFNGRARVHSIVRGDINGRKVDSMIDVITNKFDGRWVIESVQFI” stands 1.45.
For the sequence “SSEEHDAKNMHKMFREAMMTGDEDLLKNLLDPHVRLTFNGKDFHGWDRVYELFRKRLEHLGITWKDWDLHIIETQGDKVELNSTLHGRVGDKHVDDHTTLFIRKIDGQWVLTEVRIG”, the protease stability score turned out to be 1.46.
Then “SSEEKRDKDAVELFLKILHTGNFELFRELFDPNTRWEYGDKELIGMELIVTWWFEFVRDRGVEVELHRIDRINGRVVLETTMRIGDKQTSTHVHVIVINGVFHEVRFRFH”, with 1.29.
Under “SSHEEYMIRLVLQIIRLYLTGDEETIRKMADPNTYMKITIGDKDIEAHGREDVIRVREEIRKQIRIHHVDVTSIKVIDGRLVIHGILDGEYDGKRDEVDVRIEIIIVNGKWTSEHARVH” stands 1.05; under “SSQEKFLKELVEIWVELWRTGNEEAFKRLADPDAKNDVNGVYSHGMENVEKLLKHFGIKHVEINDVKVQGDKVIMDGIIEFNGVTIKEHVEIVIVNGRFKELRIRRE”, 0.788.
Under “STEEEEAKKFSDIVLKAFDTGDEDLYRDLADPDTRSIINGVEKHGWKDIARHIKRIDHSDTHWDRVEMRVVNGQARVHVKGHIDVTIDGQRFVLRVTWHIIVTKIDGRWHLEELSLEVS” stands 1.31; under “STEEEELRDYLEILDHLWKTGDFDRLLNLIDPHVRLEVNGREHHGMRWFETIIRKLGHDNISVHINNEKVHIVDGRAHWEGKKILIYDGRFHDFHTHLFFLKIDGKWKLKEVEYH”, 1.26; under “STEEREVYEWVHELLNAFNTGDEDFYYERMDPHVRFESQFNGKELDIVGREKVLKWTKTFWDDLGVDHSKLRSFRIQGDKLILHMEVTINGRHIQVDFFHVIVDGKLHSEEIRIH”, 0.649.
The sequence “STLEEHVFRMAYEIITDLETGDEEYYKKRADPDMYVHIRIGDKEVEIHGREHFIQWVKRLFEEIRIHWRIRDMHIVDGVYRFHTELEIRIGDKEHRIKSEVKVVVVNGKIKQLEIRIK” gave a protease stability score of 2.
Then “STREEETRRISDMIVKSLMTGDWRTFHDLLDPNVKVEINGKEMHGWKAWEDYIREMGIKVFDYHRIEVDENHLLMDGIDKVDGREHRSHYEITIIDGRIRRVEIRHK”, with 1.1.
Under “SYHEKEALDLYRMTIHNYLTGDWKEWHRLFDPHVRIRIGDKELHGMENFAKWEEDLEKDLGVDHVEIRLRDMEVQGDKFTSDGELRLHIDGRTIRHKVEFHLEVINGRIKSHRINIH” stands 1.04; under “TDDEEIWKIAIKMLRSAMHTGDEDTIKHLLDPNVRIEINGREIIGREIYAKHLREIRVDVERWEDHHIEVQGEFMHVKGRVVLTEEINGQEVREDVKLHVLVLKIDGQWRITSLYFR”, 0.754.
Take “TDDEREAVRFSEEVMHSFITGDEEHLDRLMDPNTKLTVNGKEIHGRQDVLEFIKRYRRELGVKYSEFVVHSVDDFDGRLRNNTELNINVDGKHIRLDTRVDMIKFNGRWQLHSIRFD”: the protease stability score was 1.44.
Under “TDEDEAAELIIRLLEELHHTGDEDKLRDLMDPHVRMDIDGKDFHGRETYLEHLHHRLVNWGVDRIKVEIRLKHSEIQGEKLILETDWIVIFDGVRYEMKVRLILIKVNGRWVLKSSHFK” stands 1.32.
